In doi:10.1101/2025.03.31.646278:

Target: HPV16 L1 pentamer (deletion construct of the major capsid protein L1) (human papillomavirus type 16)
Assay: cryo-EM structure

Substance: HPV16 L1 pentamer (deletion construct of the major capsid protein L1) (domain or fragment)
- stoichiometry N (protomers per pentamer): 5
